{"source": "paper PMC1762433", "target": "FBXW8 (UniProt Q8N3Y1)", "test": "HA IP, V5 immunoblot", "settings": "reference: HA-cyclin D1 wild type; sites T286", "data": [{"substance": "cyclin D1 (from UniProt P24385) HA-cyclin D1 T286A", "values": [{"measurement": "binding against the reference", "result": "weaker"}]}]}
